Experimental data published in US20110160280.
Positions count from the first letter of the chain named.

Tests used:
[1] = system: T1, WDHD1 S374A immunoprecipitant
T1 sequence: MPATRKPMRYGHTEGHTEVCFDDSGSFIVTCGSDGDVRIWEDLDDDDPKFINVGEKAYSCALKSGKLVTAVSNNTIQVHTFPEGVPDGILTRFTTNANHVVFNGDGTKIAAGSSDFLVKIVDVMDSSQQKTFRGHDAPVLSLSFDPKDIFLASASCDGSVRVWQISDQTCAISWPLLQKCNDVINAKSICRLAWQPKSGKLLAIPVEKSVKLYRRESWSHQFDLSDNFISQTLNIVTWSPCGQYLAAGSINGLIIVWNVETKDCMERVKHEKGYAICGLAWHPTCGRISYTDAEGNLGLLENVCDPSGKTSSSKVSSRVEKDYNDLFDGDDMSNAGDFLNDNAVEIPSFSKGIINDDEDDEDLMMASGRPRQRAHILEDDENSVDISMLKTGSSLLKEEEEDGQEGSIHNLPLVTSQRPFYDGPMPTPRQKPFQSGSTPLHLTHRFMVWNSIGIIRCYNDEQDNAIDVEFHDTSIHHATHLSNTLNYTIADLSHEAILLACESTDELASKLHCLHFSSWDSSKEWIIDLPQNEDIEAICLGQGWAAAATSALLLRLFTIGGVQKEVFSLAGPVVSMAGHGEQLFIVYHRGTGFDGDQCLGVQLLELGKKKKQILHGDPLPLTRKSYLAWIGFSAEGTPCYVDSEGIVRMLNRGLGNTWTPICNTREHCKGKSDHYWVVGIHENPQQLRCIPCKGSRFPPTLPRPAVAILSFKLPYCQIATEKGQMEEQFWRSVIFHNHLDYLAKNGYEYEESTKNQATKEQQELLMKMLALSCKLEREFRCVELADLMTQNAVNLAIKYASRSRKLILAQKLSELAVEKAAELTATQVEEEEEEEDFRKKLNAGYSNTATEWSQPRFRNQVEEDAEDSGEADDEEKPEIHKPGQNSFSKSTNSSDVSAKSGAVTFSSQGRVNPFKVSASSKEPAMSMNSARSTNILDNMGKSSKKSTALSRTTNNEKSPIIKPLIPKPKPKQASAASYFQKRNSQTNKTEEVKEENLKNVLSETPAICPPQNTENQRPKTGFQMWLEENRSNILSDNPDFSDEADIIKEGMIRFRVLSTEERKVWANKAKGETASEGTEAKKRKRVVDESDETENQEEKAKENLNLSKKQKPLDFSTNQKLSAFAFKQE

[2] = system: T2, WDHD1 immunoprecipitant, wild type (c-Myc-tagged WDHD1, pcDNA3.1/myc-His-WDHD1)
T2 sequence: T1 sequence with A374S

[3] = biological target: active recombinant EGFR (Millipore) (UniProt P00533)
[4] = system: active recombinant MET (Millipore)
Chain of active recombinant MET (Millipore) (chain, as listed by the source): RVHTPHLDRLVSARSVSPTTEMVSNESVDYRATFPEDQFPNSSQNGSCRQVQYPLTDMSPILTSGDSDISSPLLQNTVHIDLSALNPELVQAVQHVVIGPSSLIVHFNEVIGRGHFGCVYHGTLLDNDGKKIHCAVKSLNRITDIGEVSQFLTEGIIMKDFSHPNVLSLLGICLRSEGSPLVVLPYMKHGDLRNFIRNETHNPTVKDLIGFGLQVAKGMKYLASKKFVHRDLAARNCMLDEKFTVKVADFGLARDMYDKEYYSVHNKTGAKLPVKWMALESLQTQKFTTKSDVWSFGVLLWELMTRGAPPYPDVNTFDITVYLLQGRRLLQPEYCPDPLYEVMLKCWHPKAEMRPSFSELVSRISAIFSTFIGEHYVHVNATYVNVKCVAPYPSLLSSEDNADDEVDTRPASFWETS

[5] = biological target: GST-tagged partial EGFR fragment #3 (codons 1046-1186) (UniProt P00533)

Chain of active recombinant EPHA7 (Carnabioscience) (chain, as listed by the source): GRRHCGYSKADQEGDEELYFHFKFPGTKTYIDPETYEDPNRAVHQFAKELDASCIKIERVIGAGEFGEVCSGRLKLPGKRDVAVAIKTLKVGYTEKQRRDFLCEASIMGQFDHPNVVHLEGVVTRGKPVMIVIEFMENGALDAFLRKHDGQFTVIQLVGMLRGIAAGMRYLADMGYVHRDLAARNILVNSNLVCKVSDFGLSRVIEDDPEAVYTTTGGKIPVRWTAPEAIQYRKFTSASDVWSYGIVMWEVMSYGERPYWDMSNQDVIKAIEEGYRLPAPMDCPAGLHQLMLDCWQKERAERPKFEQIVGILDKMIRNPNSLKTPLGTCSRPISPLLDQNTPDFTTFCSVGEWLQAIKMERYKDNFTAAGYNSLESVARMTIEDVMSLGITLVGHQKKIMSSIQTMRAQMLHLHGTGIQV

Row | Substance | in vitro kinase assay, immunoblot with PAS antibody [1] | in vitro kinase assay, immunoblot with PAS antibody [2] | in vitro kinase assay (phosphorylation of EGFR) [3] | in vitro kinase assay (level of EPHA7 phosphorylation) [4] | in vitro kinase assay (phosphorylation of MET) [4] | in vitro kinase assay (phosphorylation of partial EGFR fragment) [5]
1 | recombinant human AKT1 (rhAKT1; Invitrogen) | clearly indicated the reduced levels of WDHD1 phosphorylation in cells transfected with S374A mutant | proved the direct phosphorylation of WDHD1 by AKT | – | – | – | –
2 | active recombinant EPHA7 (Carnabioscience) | – | – | EPHA7 could directly phosphorylate EGFR under the existence of EGFR kinase inhibitor that had diminished autophosphorylation of EGFR | the level of EPHA7 phosphorylation was markedly elevated when MET was co-incubated in the presence MET kinase inhibitor | EPHA7 could directly phosphorylate MET | phosphorylated tyrosine residues on cytoplasmic EGFR could be present in COOH-terminal portion (codons 1046-1186)
